A short description of the data set: Ex vivo biodistribution of 111In-labeled variants in AR42J xenograft mice. The arrangement: species or system athymic nude mice. The note with it: athymic nude, mouse, iv, 1 ug, total radioactivity, 1 h post-injection; for tissue uptake at 1 h: AR42J tumor-bearing mice. Here is the method:
For studies involving three variants (DOTA -TATE, DOTA-MVK(ε)-TATE, and DOTA-β-Gal-TATE), AR42J cells (5 × 10^6 cells per mouse) were subcutaneously inoculated into the right shoulder of the mice. Tumors were allowed to grow for 3 weeks, reaching a volume of 100 –200 mm³ before being used in subsequent experiments. For biodistribution or PET imaging studies, mice bearing subcutaneous AR42J tumors were administered 1.4 – 1.8 MBq (1 μg) of 111In-labeled DOTA-TATE variants or 2.7 – 4.9 MBq (1 μg) of 86Y-labeled DOTA-TATE variants via tail vein injection. Biodistribution studies with 111In-labeled DOTA -TATE variants were performed 1 hour post -injection (n = 3 per cohort), while studies with 86Y-labeled DOTA-TATE variants were conducted at 1, 4, and 24 hours post -injection (n = 3 per cohort). Mice were euthanized by CO2 asphyxiation, and 10 tissues, including tumors, were collected. All samples were weighed and counted on a gamma counter (2480 Wizard 3, Perkin Elmer Inc., Waltham, MA, USA). Results are presented as percentage of injected activity per gram (%IA/g) and mean values ± standard deviations. […]

The mark [1] stands for this setting: blood, i.v. 1 μg (1.4–1.8 MBq), ex vivo gamma counting, mean, n = 3, read-out: Blood uptake.
Setting [2] is: femur, i.v. 1 μg, ex vivo, mean, n = 3, read-out: Femur uptake.
Setting [3] is: heart, i.v. 1 μg, ex vivo, mean, n = 3, read-out: Heart uptake.
Setting [4] is: kidney, i.v. 1 μg, ex vivo, mean (± SD), n = 3, read-out: Kidney uptake.
The mark [5] stands for this setting: liver, i.v. 1 μg, ex vivo, mean, n = 3, read-out: Liver uptake.
The mark [6] stands for this setting: lung, i.v. 1 μg, ex vivo, mean, n = 3, read-out: Lung uptake.
[7] abbreviates: muscle, i.v. 1 μg, ex vivo, mean, n = 3, read-out: Muscle uptake.
Setting [8] is: spleen, i.v. 1 μg, ex vivo, mean, n = 3, read-out: Spleen uptake.
Where [9] appears, read: tumor (AR42J xenograft), i.v. 1 μg, ex vivo, mean (± SD), n = 3, read-out: Tumor uptake.

Like-named read-outs stand apart in the source and are kept apart here.

On to `CSCC[C@H](NC(=O)CN1CCN(CC(=O)O)CCN(CC(=O)O)CCN(CC(=O)O)CC1)C(=O)N[C@H](C(=O)N[C@@H](CCCCNC(=O)CCCC(=O)N[C@H](Cc1ccccc1)C(=O)N[C@H]1CSSC[C@@H](C(=O)N[C@H](C(=O)O)[C@@H](C)O)NC(=O)[C@H]([C@@H](C)O)NC(=O)[C@H](CCCCN)NC(=O)[C@@H](Cc2c[nH]c3ccccc23)NC(=O)[C@H](Cc2ccc(O)cc2)NC1=O)C(=O)O)C(C)C` [^111In-DOTA-MVK(ε)-TATE, metal not drawn], for which the tissue uptake at 1 h stood at 0.73 %ID/g under setting [1]; 0.55 %ID/g under setting [2]; 0.29 %ID/g under setting [3]; 0.81 %ID/g (intestine, i.v. 1 μg, ex vivo, mean, n = 3, read-out: Intestine uptake); 5.56 ± 0.29 %ID/g under setting [4]; 0.31 %ID/g under setting [5]. For the same molecule, the tissue uptake at 1 h runs as follows: under setting [6], 0.73 %ID/g; under setting [7], 0.27 %ID/g; under setting [8], 0.16 %ID/g; under setting [9], 5.44 ± 0.19 %ID/g. Moreover, for the setting “tumor and kidney, AR42J xenografts, ex vivo, read-out: Tumor-to-kidney (T/K) ratio”, the tissue to tissue ratio at 1 h turned out to be 0.98.
As to `C[C@@H](O)[C@H](NC(=O)[C@@H]1CSSC[C@H](NC(=O)[C@@H](Cc2ccccc2)NC(=O)CN2CCN(CC(=O)O)CCN(CC(=O)O)CCN(CC(=O)O)CC2)C(=O)N[C@@H](Cc2ccc(O)cc2)C(=O)N[C@H](Cc2c[nH]c3ccccc23)C(=O)N[C@@H](CCCCN)C(=O)N[C@@H]([C@@H](C)O)C(=O)N1)C(=O)O` [^111In-DOTA-TATE, metal not drawn, reference compound], the tissue uptake at 1 h is, setting by setting: under setting [1], 0.27 %ID/g; under setting [2], 0.12 %ID/g; under setting [3], 0.1 %ID/g; under setting [4], 7.33 ± 0.04 %ID/g; under setting [5], 0.23 %ID/g; under setting [6], 0.49 %ID/g. Moreover, the tissue uptake at 1 h runs as follows: under setting [7], 0.06 %ID/g; under setting [8], 0.1 %ID/g; under setting [9], 5.67 ± 0.92 %ID/g.
